The values that follow come from patent US20020155563A1 (Bristol-Myers Squibb, published 2002).

The target in this assay is T1, Grb2 (adapter protein, from Jurkat T cell lysates) (human, UniProt P62993 1-217).
T1 construct: also called adapter protein Grb2
Briefly: pull-down from Jurkat lysates on Talon beads, anti-Grb2 immunoblot. The protocol:
In this Example, experiments were performed to determine if human MIST provided by the present invention associated with signaling proteins critical for cell activation. For this purpose, cell lysates from unstimulated Jurkat T cells, or TCR/CD3-activated Jurkat T cells, were prepared and precipitated with Talon resin beads (Clontech, Palo Alto, Calif.) preloaded with equivalent amounts (5 μg total) of His-MIST fusion proteins. The phosphotyrosine content of precipitated proteins was analyzed by SDS-PAGE followed by Western blotting with an anti-phosphotyrosine specific antibody (4G10, UBI, Hauppague, N.Y.).
More specifically, Jurkat T cells (10⁷/lane) were unstimulated, or were stimulated with monoclonal antibody (MoAb) to the T-cell receptor TCR/CD3 (G19-4-BMS) for 5 minutes at 37° C., and then lysed in 1% NP40-containing lysis buffer and incubated with Talon beads preloaded with equivalent amounts (50 μl of slurry resin) of the indicated His-MIST fusion proteins. Reactants and immunoprecipitates were subjected to SDS-PAGE on 4-20% gradient gels. […] Blot stripping was performed and the membrane was subsequently re-probed with anti-Grb2 MoAb (Santa Cruz Biotechnology, Inc., Santa Cruz, Calif.), anti-Cbl MoAb (Santa Cruz Biotechnology, Inc., Santa Cruz, Calif.), or anti-Vav1 MoAb (Upstate Biotechnology, Inc., Lake Placid, N.Y.).
A general note: In western blotting, separated proteins are transferred to a membrane and probed.

T1 sequence (P62993 whole entry): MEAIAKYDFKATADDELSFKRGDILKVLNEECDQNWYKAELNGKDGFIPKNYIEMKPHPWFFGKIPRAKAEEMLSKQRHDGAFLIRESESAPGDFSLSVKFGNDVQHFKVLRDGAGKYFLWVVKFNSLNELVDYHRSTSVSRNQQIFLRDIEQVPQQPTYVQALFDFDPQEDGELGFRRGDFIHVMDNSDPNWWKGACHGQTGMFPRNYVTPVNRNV

B1: His-MIST-SH2 (poly-histidine tagged MIST SH2 domain, residues 320-443) (other, not shown: small tags and cut ends)
chain: QHNEWYIGEYSRQAVEEAFMKENKDGSFLVRDCSTKSKEEPYVLAVFYENKVYNVKIRFLERNQQFALGTGLRGDEKFDSVEDIIEHYKNFPIILIDGKDKTGVHRKQCHLTQPLPLTRHLLPL
notes: Recombinant, Sf9 cells; also called His-MIST-SH2 fusion protein
Regarding B1, the binding result is “no binding”.
